This passage reports protein stability index results from the supplement of paper PMC10567573.

The nature of the series: protein stability index of a GFP-peptide fusion (GPS, HEK-293T) (PSI 1-6); higher = more stable.
[1] abbreviates: treatment: DMSO, c terminus: a fixed tail appended.
Setting [2] is: treatment: MLN4924 1 uM, 8 h, c terminus: a fixed tail appended.

± gives the standard deviation.
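Also: 24-mer peptide tiles fused after GFP, lentivirally expressed, FACS-sorted into six equal bins by GFP/DsRed ratio, decoded by Illumina sequencing, PSI is the read-weighted mean bin number.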

For SNVSSSGSINLLESPQLATLAEDV [MAP2], the protein stability index runs as follows: under setting [1], 5.03 ± 0.22; under setting [2], 5.17 ± 0.24.
In the same order, the values of LEHVRALIKKYSDHLENVSKLVES [TRIM55] are 3.02 ± 0.28 and 3.1 ± 0.17.
The like results for MRTTNLDNRCKLFDSPSLCSSSTR [CDC25A] were, in that order, 3.21 ± 0.4 and 3.18 ± 0.24.
In the same order, the values of RLEINVLKKIKEKDKENKFLCVLM [CLK3] are 2.57 ± 0.52 and 2.1 ± 0.082.
With MEDSFLQSFGRLSLQPQQQQQRQR [N4BP2L1], the protein stability index under setting [1] came to 4.69 ± 0.3 and the protein stability index under setting [2] amounted to 4.63 ± 0.25.
In the same order, the values of YQLFEELGKGAFSVVRRCVKVLAG [CAMK2A] are 2.9 ± 0.64 and 2.64 ± 0.39.
The like results for PPPLPNHKYNTTSTSYSPLASLPL [PLAGL1] were, in that order, 3.29 ± 0.17 and 3.33 ± 0.091.
The like results for GSKLEKGHLRGPEIRDWRGPQLEG [ZSWIM9] were, in that order, 3.87 ± 0.35 and 3.85 ± 0.2.
Turning to QLQELLHHCDDHLSLYQLSLERGT [RSAD1], the protein stability index reads like this: under setting [1], 2.34 ± 0.24; under setting [2], 2.58 ± 0.34.
In the same order, the values of IIELLEKDGMAFQEALDPGPFDQG [ELF3] are 3.58 ± 0.39 and 3.44 ± 0.32.
The like results for KFDHIEVRDGPFGFSPIIGRFCGQ [NETO1] were, in that order, 2.3 ± 0.28 and 2.44 ± 0.34.
In the same order, the values of PSGSSGSLSTSSSSSPPGTPSPAD [CEBPB] are 5.53 ± 0.31 and 5.46 ± 0.069.
Regarding ADSEQADIARMLYKDTCHELDELQ [ZMYND11], the protein stability index turned out to be 5.14 ± 0.24 under setting [1] and 4.99 ± 0.2 under setting [2].
For VNHRIYYKGHIPEKLETFVSLHR [FEM1C], the protein stability index reads like this: (treatment: DMSO, c terminus: native) 2.24 ± 0.17; (treatment: MLN4924 1 uM, 8 h, c terminus: native) 2.305 ± 0.015.
Take RVKFKSQQHRQGRSHHLEMVIQLL [PTGFR]: the protein stability index was 2.44 ± 0.19 under setting [1] and 2.21 ± 0.17 under setting [2].
In the same order, the values of ELRTAKDSDDDDDVAVTVDRDRFM [STX1A] are 5.37 ± 0.06 and 5.25 ± 0.14.
The like results for FETQLKTLCQFPETLLGDPKRRMR [KCNA3] were, in that order, 3.54 ± 0.35 and 3.65 ± 0.28.
The like results for TLAQAHFNNGEYAEAEALYSAYIR [TTC32] were, in that order, 2.98 ± 0.27 and 3.39 ± 0.21.
With SACSFTNSDMQILTASGDGTCALW [GNB5], the protein stability index reads like this: under setting [1], 2.33 ± 0.27; under setting [2], 2.15 ± 0.22.
The like results for NLRATDVRLMRQLLVINESIESIK [LURAP1L] were, in that order, 2.41 ± 0.16 and 2.58 ± 0.35.
Turning to GWLPSHEGHLDDGGYTPDLKMSYS [RBMY1A1], the protein stability index is, setting by setting: under setting [1], 3.62 ± 0.15; under setting [2], 3.5 ± 0.36.
In the same order, the values of GGFDGSRRHTSMERYDPNIDQWSM [KLHL12] are 3.76 ± 0.28 and 3.89 ± 0.45.
Consider ESACSSDSLDEARSSGSEGTPADT [PWWP2B], for which the protein stability index runs as follows: under setting [1], 5.7 ± 0.11; under setting [2], 5.5 ± 0.21.
The like results for HSVLVDDDGIKVVKVTFNKQDSLV [TMEM106C] were, in that order, 3.09 ± 0.27 and 3.18 ± 0.36.
The like results for ARGRHVGSSETNLLQHLLEACGRC [PYCR3] were, in that order, 2.71 ± 0.88 and 3.17 ± 1.4.
In the same order, the values of LNEEQTLQEVPTGLDSISHDSANC [ETS2] are 5.54 ± 0.073 and 5.33 ± 0.18.
On to AIRRRNVRGEDSGRKPERRRLKTT [DAPK3], for which the protein stability index under setting [1] stood at 4.644 ± 0.043 and the protein stability index under setting [2] worked out at 4.69 ± 0.9.
In the same order, the values of ILSGLDDMSIGGNLSKTQNMERFG [CDC14A] are 3.24 ± 0.22 and 3.08 ± 0.26.
Consider QKLYVRLFQRKLSWIKMTKLEYEE [FAN1], for which the protein stability index was 2.63 ± 1.1 under setting [1] and 2.44 ± 0.6 under setting [2].
The like results for GVVVCEADTGRIHRFVEKPQVFVS [GMPPB] were, in that order, 2.25 ± 0.19 and 2.28 ± 0.3.
In the same order, the values of CLRDDVVFFIYLYQRWIYRVDPTR [CLPTM1] are 2.77 ± 0.35 and 2.81 ± 0.48.
In the same order, the values of FVKILKDFPEEDDPTNWLRCYYYE [NCF4] are 2.25 ± 0.28 and 2.55 ± 0.6.
Take SAAYYLNDLDRIAQPNYIPTQQDV [GNAI1]: the protein stability index by setting is: under setting [1], 3.7 ± 0.28; under setting [2], 3.73 ± 0.24.
In the same order, the values of DAMLKEASGPINFTMFLNLFGEKL [MYL5] are 2.23 ± 0.55 and 2.27 ± 0.28.
On to SSMKKFCRPLLPSCTTRLCQEEQL [PSD2], for which the protein stability index reads like this: under setting [1], 2.88 ± 0.29; under setting [2], 2.98 ± 0.15.
Turning to QWGTVCDDDFSIHAAHVVCRELGY [LOXL2], the protein stability index runs as follows: under setting [1], 2.47 ± 0.36; under setting [2], 2.38 ± 0.39.
In the same order, the values of EPSFAQFSQEIGLASLGASEEAVQ [TPH1] are 5.17 ± 0.61 and 4.99 ± 0.37.
The like results for QETPYLVKLPLPAERVTLADFKGV [DVL3] were, in that order, 3.25 ± 0.3 and 3.49 ± 0.18.
Turning to DGAEIAEKFVFFIGSKNGGKTTII [DYNC2LI1], the protein stability index is 2.26 ± 0.78 under setting [1] and 2.05 ± 0.54 under setting [2].
Turning to RIAAVEALCMLAQSSPSFAEKCLD [INTS4], the protein stability index under setting [1] is 2.46 ± 0.49 and the protein stability index under setting [2] amounted to 2.2 ± 0.53.
EEEEEEEGSGHSTGEDSAFQEPDS [WEE1]: the protein stability index runs as follows: under setting [1], 5.7 ± 0.16; under setting [2], 5.62 ± 0.11.
Take SSSSGVLMVGPNFRVGKKIGCGNF [CSNK1G3]: the protein stability index was found to be 2.71 ± 0.38 under setting [1] and 2.71 ± 0.21 under setting [2].
In the same order, the values of EEIDVDGKFIRLKNTSEQDQPMGG [LMNB1] are 5.15 ± 0.46 and 5.47 ± 0.43.
In the same order, the values of SPDILEEKHCEFKQLALDHFKKTK [ATL3] are 4.79 ± 0.23 and 4.79 ± 0.12.
In the same order, the values of TVAGIVGSSYGILQLFSSTLVGCW [MFSD9] are 2.96 ± 0.83 and 2.89 ± 0.32.
With SDHEMREEEKLKAEEIRIKGKYNI [KCNK9], the protein stability index runs as follows: under setting [1], 5.11 ± 0.21; under setting [2], 5.22 ± 0.3.
Consider AYDWVGRPIPTPVGSVHVDSGASA [CSNK1G1], for which the protein stability index under setting [1] came out at 3.94 ± 0.29 and the protein stability index under setting [2] came out at 4.08 ± 0.16.
Regarding SLCNLEESITSAGRDDLESFQLEI [FAM98B], the protein stability index is, setting by setting: under setting [1], 3.26 ± 0.16; under setting [2], 3.45 ± 0.19.
The like results for EPGNFIPLFTPQSPVTATLSDEDD [CDC25A] were, in that order, 5.56 ± 0.18 and 5.69 ± 0.13.
In the same order, the values of KQLEFGLKEAPVQDQGYKTLRLRE [ZNF8] are 4.3 ± 0.31 and 4.27 ± 0.22.
Consider EGEPATQRQDPAAAQEGEDEGASA [GAGE1], for which the protein stability index came out at 5.55 ± 0.11 under setting [1] and 5.56 ± 0.26 under setting [2].
Regarding TVPADGYILELDDGNGGQFREVYV [TRIM9], the protein stability index under setting [1] was 2.15 ± 0.24 and the protein stability index under setting [2] was found to be 2.2 ± 0.6.
In the same order, the values of IMDRFDCQYLMATFVNVYIASFIR [CDS2] are 3.423 ± 0.005 and 3.33 ± 0.31.
In the same order, the values of PFDMDSCLSRHSINPYSNRESRIL [DFFB] are 3.24 ± 0.29 and 3.22 ± 0.29.
In the case of KDKLGVWVYKNKLIFFGGYGYLPE [KLHDC2], the protein stability index reads like this: under setting [1], 2.25 ± 0.59; under setting [2], 3.11 ± 1.6.
The like results for KPEEPPQNLLREKIMKLPLPESLK [PCMTD1] were, in that order, 4.57 ± 0.43 and 4.76 ± 0.13.
The like results for MSALGSPVRAYDFLLKFLLVGDSD [RAB40B] were, in that order, 2.42 ± 0.38 and 2.13 ± 0.32.
In the same order, the values of MCKADLSRNFIERNHMENGGDHRY [TRIM29] are 3.41 ± 0.25 and 3.33 ± 0.26.
As for MATSRYEPVAEIGVGAYGTVYKAR [CDK4], the protein stability index runs as follows: under setting [1], 3.2 ± 0.094; under setting [2], 3.2 ± 0.24.
In the same order, the values of QHKTCMLNATSKFMEFYQDVKDWW [EDNRA] are 2.6 ± 0.74 and 2.89 ± 0.36.
The like results for SLHKGAKRKGIKSSIGRLFGKKEK [PPFIA4] were, in that order, 3.6 ± 0.46 and 3.73 ± 0.18.
The like results for CHPVERGIKSKEAEEYRLKEHYLT [PSD2] were, in that order, 4.21 ± 0.093 and 4.1 ± 0.2.
Turning to RGSKMFKLRQMRVEKFIYENHPDV [MYOZ1], the protein stability index by setting is: under setting [1], 2.9 ± 0.37; under setting [2], 2.52 ± 0.12.
The like results for IGDVHLAPFTDEQLYMEQFTKANF [CARM1] were, in that order, 3 ± 0.2 and 3.03 ± 0.36.
The like results for IPGEHFWLLLLTRGLVGVGEASYS [SPNS1] were, in that order, 3.1 ± 0.47 and 2.37 ± 0.58.
The like results for AVEGLTEAEEEELRAELTKVEEEI [TPD52L2] were, in that order, 5.6 ± 0.25 and 5.54 ± 0.12.
Take WKIAPAMAAGNTVIAKPSELTSVT [ALDH8A1]: the protein stability index turned out to be 3.12 ± 0.41 under setting [1] and 3.17 ± 0.53 under setting [2].
In the same order, the values of QIRDWRGGRLENQKPRGLEGGVLR [ZSWIM9] are 3.3 ± 0.54 and 3.57 ± 0.15.
The like results for YWTKYYDFKNPIIEKYLRRQLTKP [OAS1] were, in that order, 1.94 ± 0.33 and 2.11 ± 0.19.
Sequence DPEEAIRHDVIVSIVTAAKKDILL [PDS5B] yielded a protein stability index under setting [1] of 2.3 ± 0.15 and a protein stability index under setting [2] of 2.54 ± 0.3.
The like results for DQLNDGQDFAKDLLKTLYNSIKNE [PSD2] were, in that order, 3.56 ± 0.21 and 3.71 ± 0.32.
Take HKARTRPKARKQGVSPADMYRWKL [ADAMTSL2]: the protein stability index stood at 3.32 ± 0.25 under setting [1] and 3.31 ± 0.42 under setting [2].
